Test [1] has as its target T1, recombinant E. coli-expressed human IL-13 (human, UniProt P35225 35-146).
T1 construct: made and purified at GSK; also called Interleukin-13; rhIL-13
Kind of test: SPR.

For test [2], the target named is T2, CD20 on CD20 positive cell line (Wein133) (UniProt P11836 1-297, limits assumed).
T2 construct: whole, on cells
T2 sequence (looked up): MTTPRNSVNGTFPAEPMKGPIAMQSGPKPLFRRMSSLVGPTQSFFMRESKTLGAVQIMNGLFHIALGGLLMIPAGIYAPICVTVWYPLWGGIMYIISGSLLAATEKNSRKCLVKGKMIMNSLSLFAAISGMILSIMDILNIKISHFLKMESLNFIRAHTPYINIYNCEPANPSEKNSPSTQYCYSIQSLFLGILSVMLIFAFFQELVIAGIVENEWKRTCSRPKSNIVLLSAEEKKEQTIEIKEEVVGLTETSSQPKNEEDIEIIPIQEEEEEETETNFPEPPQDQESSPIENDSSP
The test is described as follows: flow cytometry, Wein133 cells.

The target of test [3] is T1, recombinant E. coli-expressed human …. The test is described as follows: SPR. This is another data set of the same source.
Test [4] has the same target. Kind of test: SPR, purified.
Test [5] has the same target. The test is described as follows: SPR, no IL-4 bound.
For test [6] the target is unchanged. The test is described as follows: cell-based or functional assay.
The target of test [7] is T3, recombinant E. coli-expressed human IL-4 (human, UniProt P05112 25-153).
T3 sequence: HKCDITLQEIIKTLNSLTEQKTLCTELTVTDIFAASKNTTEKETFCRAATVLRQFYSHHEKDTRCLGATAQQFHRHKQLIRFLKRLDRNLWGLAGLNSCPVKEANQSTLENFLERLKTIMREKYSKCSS
The test is described as follows: cell-based or functional assay.

Test [8] concerns the target T1, recombinant E. coli-expressed human …. The test is described as follows: SPR, human IL-4 bound first.
In test [9] the target is T3, recombinant E. coli-expressed human IL-4. Kind of test: ELISA, IL-4 binding to IL4Ralpha-Fc.
The target is the same in test [10]. Kind of test: SPR.
Test [11] shares this target. The test is described as follows: SPR, poor curve fit.
The target in test [12] is T4, recombinant E. coli-expressed cynomolgus IL-13 (cynomolgus, UniProt Q0PW92 21-132).
T4 construct: also called cyno IL-13
The test is described as follows: SPR.

For test [13], the target named is T5, recombinant E. coli-expressed cynomolgus IL-4 (cynomolgus, UniProt P79339 25-153).
T5 construct: also called cyno IL-4
T5 sequence (looked up): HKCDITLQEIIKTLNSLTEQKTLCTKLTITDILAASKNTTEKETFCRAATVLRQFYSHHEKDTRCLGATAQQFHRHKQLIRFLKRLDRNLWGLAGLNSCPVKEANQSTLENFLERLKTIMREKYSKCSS
Kind of test: SPR.

The target of test [14] is T1, recombinant E. coli-expressed human …. Kind of test: SPR. This is another data set of the same source.
Test [15] shares this target. The test is described as follows: SPR exp 3.
Test [16] addresses T3, recombinant E. coli-expressed human IL-4. The test is described as follows: SPR, purified.
The target in the next test is T6, recombinant human HER2 (human, UniProt P04626 23-652, limits assumed).
T6 construct: bought
The test is described as follows: ELISA.

The target of a further test is T7, recombinant human VEGF (human, UniProt P15692-4 27-191).
T7 construct: also called VEGF165; hVEGF165
The test is described as follows: ELISA.

Another test deals with T8, VEGF R2 (VEGF receptor) (human, UniProt P35968 20-764).
T8 construct: bought; construct not described
Kind of test: ELISA.

Several values for one entry are separate records, joined by “and”; a condition that tells them apart may be missing. Equal values may be shown once.

T8 sequence (P35968 20-764 limits assumed): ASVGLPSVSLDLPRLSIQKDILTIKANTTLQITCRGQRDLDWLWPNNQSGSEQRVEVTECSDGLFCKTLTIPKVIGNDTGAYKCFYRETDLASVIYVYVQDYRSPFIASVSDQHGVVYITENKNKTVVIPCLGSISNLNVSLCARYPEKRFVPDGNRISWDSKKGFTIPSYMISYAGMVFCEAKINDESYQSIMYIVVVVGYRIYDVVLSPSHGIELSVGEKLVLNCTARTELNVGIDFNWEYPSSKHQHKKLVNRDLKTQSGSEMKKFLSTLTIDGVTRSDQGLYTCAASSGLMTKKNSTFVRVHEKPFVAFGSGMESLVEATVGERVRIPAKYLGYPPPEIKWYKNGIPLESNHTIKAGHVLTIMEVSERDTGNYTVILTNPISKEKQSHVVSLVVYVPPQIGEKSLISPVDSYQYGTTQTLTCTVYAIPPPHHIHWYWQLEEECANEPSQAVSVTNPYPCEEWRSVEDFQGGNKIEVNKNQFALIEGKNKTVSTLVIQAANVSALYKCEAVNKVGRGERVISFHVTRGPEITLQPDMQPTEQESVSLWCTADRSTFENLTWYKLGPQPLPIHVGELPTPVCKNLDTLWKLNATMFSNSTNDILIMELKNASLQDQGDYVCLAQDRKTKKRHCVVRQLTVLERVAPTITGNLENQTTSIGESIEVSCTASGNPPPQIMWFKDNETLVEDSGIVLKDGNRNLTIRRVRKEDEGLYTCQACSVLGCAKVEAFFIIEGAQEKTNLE

B1: BPC1404 (bispecific antibody, human IgG1, kappa)
heavy: not shown
light: QIVLSQSPAILSASPGEKVTMTCRASSSVSYIHWFQQKPGSSPKPWIYATSNLASGVPVRFSGSGSGTSYSLTISRVEAEDAATYYCQQWTSNPPTFGGGTKLEIKRTVAAPSVFIFPPSDEQLKSGTASVVCLLNNFYPREAKVQWKVDNALQSGNSQESVTEQDSKDSTYSLSSTLTLSKADYEKHKVYACEVTHQGLSSPVTKSFNRGECGSGVQLLESGGGLVQPGGSLRLSCAASGFTFAWYDMGWVRQAPGKGLEWVSSIDWHGEVTYYADSVKGRFTISRDNSKNTLYLQMNSLRAEDTAVYYCATAEDEPGYDYWGQGTLVTVSS
notes: also called RituxanL-GS-DOM474
Consider B1, for which, in [1], the Kd amounted to 1.02 nM, the koff was determined as 0.000508 s⁻¹ and the kon came out at 499000 M⁻¹ s⁻¹. Moreover, in [2], the binding result is given as “binds”.

B2: 586H-TVAAPS-210 (bispecific antibody, human IgG1, kappa)
heavy: not shown
light: DIVMTQSPLSLPVTPGEPASISCRSSQNIVHINGNTYLEWYLQKPGQSPRLLIYKISDRFSGVPDRFSGSGSGTDFTLKISRVEADDVGIYYCFQGSHVPWTFGQGTKLEIKRTVAAPSVFIFPPSDEQLKSGTASVVCLLNNFYPREAKVQWKVDNALQSGNSQESVTEQDSKDSTYSLSSTLTLSKADYEKHKVYACEVTHQGLSSPVTKSFNRGEC
In the case of B2, the Kd in [3] is 0.4 nM; in [4] it was 0.38 nM; in test [5], 0.381 nM; in test [8], 0.325 nM. The koff is 0.000347 s⁻¹ in [5] and 0.000315 s⁻¹ in [8]. For the same molecule, the kon in test [5] was 909000 M⁻¹ s⁻¹; in [8], 968000 M⁻¹ s⁻¹. Further, the “Mean IC50 (whole blood phospho-STAT6)” value stood at 2.68 nM in test [6] and 1.23 nM in test [7]. Besides, the IC50 in test [9] is 23.8 nM and 21 nM.

B3: 586H-ELQLE-147 (bispecific antibody, human IgG1, kappa)
heavy: not shown
light: DIVMTQSPLSLPVTPGEPASISCRSSQNIVHINGNTYLEWYLQKPGQSPRLLIYKISDRFSGVPDRFSGSGSGTDFTLKISRVEADDVGIYYCFQGSHVPWTFGQGTKLEIKRTVAAPSVFIFPPSDEQLKSGTASVVCLLNNFYPREAKVQWKVDNALQSGNSQESVTEQDSKDSTYSLSSTLTLSKADYEKHKVYACEVTHQGLSSPVTKSFNRGEC
With B3, in test [3], the Kd worked out at 0.51 nM. Besides, in test [10], the koff was 1.52e-05 s⁻¹ and the kon stood at 701000 M⁻¹ s⁻¹. Moreover, the Kd in [11] amounted to 0.027 nM.

B4: 586H-TVAAPS-210 GS removed (bispecific antibody, human IgG1, kappa)
heavy: not shown
light: DIVMTQSPLSLPVTPGEPASISCRSSQNIVHINGNTYLEWYLQKPGQSPRLLIYKISDRFSGVPDRFSGSGSGTDFTLKISRVEADDVGIYYCFQGSHVPWTFGQGTKLEIKRTVAAPSVFIFPPSDEQLKSGTASVVCLLNNFYPREAKVQWKVDNALQSGNSQESVTEQDSKDSTYSLSSTLTLSKADYEKHKVYACEVTHQGLSSPVTKSFNRGEC
notes: also called BPC1602
With B4, in [12], the Kd is 0.058 nM, the koff came out at 2.86e-05 s⁻¹ and the kon turned out to be 492000 M⁻¹ s⁻¹. In test [13], the binding result is listed as “binds”. For the same molecule, the Kd in test [14] is 0.562 nM. Besides, the Kd in [15] was 0.501 nM. For the same molecule, in test [9], the IC50 worked out at 19.2 nM.

B5: 586H-ELQLE-154 (bispecific antibody, human IgG1, kappa)
heavy: not shown
light: DIVMTQSPLSLPVTPGEPASISCRSSQNIVHINGNTYLEWYLQKPGQSPRLLIYKISDRFSGVPDRFSGSGSGTDFTLKISRVEADDVGIYYCFQGSHVPWTFGQGTKLEIKRTVAAPSVFIFPPSDEQLKSGTASVVCLLNNFYPREAKVQWKVDNALQSGNSQESVTEQDSKDSTYSLSSTLTLSKADYEKHKVYACEVTHQGLSSPVTKSFNRGEC
On to B5, for which the results for the Kd in test [3] and in test [11] were 0.44 nM and 0.003 nM, respectively. The off-rate constant (koff) in test [10] was found to be 3.57e-06 s⁻¹. Further, the kon in [10] worked out at 1.25e+06 M⁻¹ s⁻¹.

B6: 586H-ELQLE-25 (bispecific antibody, human IgG1, kappa)
heavy: not shown
light: DIVMTQSPLSLPVTPGEPASISCRSSQNIVHINGNTYLEWYLQKPGQSPRLLIYKISDRFSGVPDRFSGSGSGTDFTLKISRVEADDVGIYYCFQGSHVPWTFGQGTKLEIKRTVAAPSVFIFPPSDEQLKSGTASVVCLLNNFYPREAKVQWKVDNALQSGNSQESVTEQDSKDSTYSLSSTLTLSKADYEKHKVYACEVTHQGLSSPVTKSFNRGEC
As to B6, the Kd in test [3] is 0.42 nM; in test [11], 0.001 nM. The off-rate (koff) in test [10] was found to be 1.63e-06 s⁻¹. Moreover, in test [10], the kon stood at 1.26e+06 M⁻¹ s⁻¹.

B7: 586H-TVAAPS-25 (bispecific antibody, human IgG1, kappa)
heavy: not shown
light: DIVMTQSPLSLPVTPGEPASISCRSSQNIVHINGNTYLEWYLQKPGQSPRLLIYKISDRFSGVPDRFSGSGSGTDFTLKISRVEADDVGIYYCFQGSHVPWTFGQGTKLEIKRTVAAPSVFIFPPSDEQLKSGTASVVCLLNNFYPREAKVQWKVDNALQSGNSQESVTEQDSKDSTYSLSSTLTLSKADYEKHKVYACEVTHQGLSSPVTKSFNRGEC
Consider B7, for which the Kd is 0.5 nM in test [3], 0.95 nM in test [10], 0.38 nM in test [4] and 1.1 nM in test [16]. The koff in test [10] was found to be 0.00012 s⁻¹. For the same molecule, the kon in test [10] worked out at 127000 M⁻¹ s⁻¹.

B8: anti-IGF-1R antibody H0L0 (antibody, human IgG1, kappa, V domains shown)
VH: QVQLVQSGAEVKKPGASVKVSCKASGYTFTDYYMNWVRQAPGQGLEWMGNINPNNGGTNYNQKFKDRVTMTTDTSTSTAYMELRSLRSDDTAVYYCARWILYYGRSKWYFDVWGRGTLVTVSS
VL: DIVMTQSPLSLPVTPGEPASISCRSSQSIVQSNGDTYLEWYLQKPGQSPQLLIYRVSNRFSGVPDRFSGSGSGTDFTLKISRVEAEDVGVYYCFQGSHVPYTFGQGTKLEIKR
notes: also called HOLO
On to B8, for which the binding result in the test with recombinant human HER2, with recombinant human VEGF and with VEGF R2 (VEGF receptor) was “no binding” each time.

B9: BPC1801 (bispecific antibody, human IgG1, kappa)
heavy: not shown
light: DIVMTQSPLSLPVTPGEPASISCRSSQSIVQSNGDTYLEWYLQKPGQSPQLLIYRVSNRFSGVPDRFSGSGSGTDFTLKISRVEAEDVGVYYCFQGSHVPYTFGQGTKLEIKRTVAAPSVFIFPPSDEQLKSGTASVVCLLNNFYPREAKVQWKVDNALQSGNSQESVTEQDSKDSTYSLSSTLTLSKADYEKHKVYACEVTHQGLSSPVTKSFNRGEC
notes: also called antiIGF1R Heavy Chain-GS-CT01 adnectin
Consider B9, for which the binding result with VEGF R2 (VEGF receptor) is reported as “binds”.

B10: BPC1802 (bispecific antibody, human IgG1, kappa)
heavy: not shown
light: DIVMTQSPLSLPVTPGEPASISCRSSQSIVQSNGDTYLEWYLQKPGQSPQLLIYRVSNRFSGVPDRFSGSGSGTDFTLKISRVEAEDVGVYYCFQGSHVPYTFGQGTKLEIKRTVAAPSVFIFPPSDEQLKSGTASVVCLLNNFYPREAKVQWKVDNALQSGNSQESVTEQDSKDSTYSLSSTLTLSKADYEKHKVYACEVTHQGLSSPVTKSFNRGEC
For B10, the binding result in the test with VEGF R2 (VEGF receptor) is listed as “binds”.

B11: BPC1401 (bispecific antibody, human IgG1, kappa)
heavy: not shown
light: QIVLSQSPAILSASPGEKVTMTCRASSSVSYIHWFQQKPGSSPKPWIYATSNLASGVPVRFSGSGSGTSYSLTISRVEAEDAATYYCQQWTSNPPTFGGGTKLEIKRTVAAPSVFIFPPSDEQLKSGTASVVCLLNNFYPREAKVQWKVDNALQSGNSQESVTEQDSKDSTYSLSSTLTLSKADYEKHKVYACEVTHQGLSSPVTKSFNRGEC
Turning to B11, in [1], the Kd turned out to be 0.313 nM, the koff amounted to 0.000182 s⁻¹ and the kon worked out at 581000 M⁻¹ s⁻¹. For the same molecule, in [2], the binding result is “binds”.

B12: BPC1402 (bispecific antibody, human IgG1, kappa)
heavy: not shown
light: QIVLSQSPAILSASPGEKVTMTCRASSSVSYIHWFQQKPGSSPKPWIYATSNLASGVPVRFSGSGSGTSYSLTISRVEAEDAATYYCQQWTSNPPTFGGGTKLEIKRTVAAPSVFIFPPSDEQLKSGTASVVCLLNNFYPREAKVQWKVDNALQSGNSQESVTEQDSKDSTYSLSSTLTLSKADYEKHKVYACEVTHQGLSSPVTKSFNRGEC
notes: also called RituxanH-GS-DOM474
On to B12, for which, in [1], the Kd stood at 0.358 nM, the koff came out at 0.000305 s⁻¹ and the kon was determined as 852000 M⁻¹ s⁻¹. In addition, the binding result in [2] is reported as “binds”.

The values are drawn from patent US20110008345A1 (GlaxoSmithKline, published 2011).
